From patent US20120090043A1, “TARGETS FOR RETROVIRUS ASSOCIATED DISEASES” (priority 2009, published 2012)

B1: ZNF614: human host interactor protein, Gene ID 80110, expressed from transfected ORF vector (protein)
chain: MIKTQESLTLEDVAVEFSWEEWQLLDTAQKNLYRDVMVENYNHLVSLGYQTSKPDVLSKLAHGQEPWTTDAKIQNKNCPGIGKVDSHLQEHSPNQRLLKSVQQCNGQNTLRNIVHLSKTHFPIVQNHDTFDLYRKNLKSSLSLINQKRRHGINNPVEFIGGEKTLLHGKHERTHTKTRFSENAKCIHTKFQVFKHQRTQKIEKPHACIECEQTFLRKSQLIYHENICIQENPGSGQCEKLSRSVLFTKHLKTNTTDKICIPNEYRKGSTVKSSLITHQQTHTEEKSYMCSECGKGFTMKRYLIAHQRTHSGEKPYVCKECGKGFTVKSNLIVHQRTHTGEKPYICSECGKGFTMKRYLVVHQRTHTGEKPYMCSECGKGFTVKSNLIVHQRSHTGEKSYICSECGKGFTVKRTLVIHQRTHTGEKSYICNECGKGFTTKRTLIIHQRTHTGEKPYECNECGKAFSQKICLIQHERCHTGKTPFVCTECGKSYSHKYGLITHQRIHTGEKPYECNECGKAFTTKSVLNVHQRTHTGERPYGCSDCEKAFSHLSNLVKHKKMHTREMGRISQVENSCNGESQLLPYK
B2: TFIP11: human host interactor protein, Gene ID 24144, expressed from transfected ORF vector (protein)
chain: MSLSHLYRDGEGRIDDDDDERENFEITDWDLQNEFNPNRQRHWQTKEEATYGVWAERDSDDERPSFGGKRARDYSAPVNFISAGLKKGAAEEAELEDSDDEEKPVKQDDFPKDFGPRKLKTGGNFKPSQKGFAGGTKSFMDFGSWERHTKGIGQKLLQKMGYVPGRGLGKNAQGIINPIEAKQRKGKGAVGAYGSERTTQSMQDFPVVDSEEEAEEEFQKELSQWRKDPSGSKKKPKYSYKTVEELKAKGRISKKLTAPQKELSQVKVIDMTGREQKVYYSYSQISHKHNVPDDGLPLQSQQLPQSGKEAKAPGFALPELEHNLQLLIDLTEQEIIQNDRQLQYERDMVVNLFHELEKMTEVLDHEERVISNLSKVLEMVEECERRMQPDCSNPLTLDECARIFETLQDKYYEEYRMSDRVDLAVAIVYPLMKEYFKEWDPLKDCTYGTEIISKWKSLLENDQLLSHGGQDLSADAFHRLIWEVWMPFVRNIVTQWQPRNCDPMVDFLDSWVHIIPVWILDNILDQLIFPKLQKEVENWNPLTDTVPIHSWIHPWLPLMQARLEPLYSPIRSKLSSALQKWHPSDSSAKLILQPWKDVFTPGSWEAFMVKNIVPKLGMCLGELVINPHQQHMDAFYWVIDWEGMISVSSLVGLLEKHFFPKWLQVLCSWLSNSPNYEEITKWYLGWKSMFSDQVLAHPSVKDKFNEALDIMNRAVSSNVGAYMQPGARENIAYLTHTERRKDFQYEAMQERREAENMAQRGIGVAASSVPMNFKDLIETKAEEHNIVFMPVIGKRHEGKQLYTFGRIVIYIDRGVVFVQGEKTWVPTSLQSLIDMAK
B3: C10orf3: human host interactor protein, Gene ID 55165, expressed from transfected ORF vector (protein)
chain: MSSRSTKDLIKSKWGSKPSNSKSETTLEKLKGEIAHLKTSVDEITSGKGKLTDKERHRLLEKIRVLEAEKEKNAYQLTEKDKEIQRLRDQLKARYSTTTLLEQLEETTREGERREQVLKALSEEKDVLKQQLSAATSRIAELESKTNTLRLSQTVAPNCFNSSINNIHEMEIQLKDALEKNQQWLVYDQQREVYVKGLLAKIFELEKKTETAAHSLPQQTKKPESEGYLQEEKQKCYNDLLASAKKDLEVERQTITQLSFELSEFRRKYEETQKEVHNLNQLLYSQRRADVQHLEDDRHKTEKIQKLREENDIARGKLEEEKKRSEELLSQVQFLYTSLLKQQEEQTRVALLEQQMQACTLDFENEKLDRQHVQHQLHVILKELRKARNQITQLESLKQLHEFAITEPLVTFQGETENREKVAASPKSPTAALNESLVECPKCNIQYPATEHRDLLVHVEYCSK
B4: LZTS2: human host interactor protein, Gene ID 84445, expressed from transfected ORF vector (protein)
chain: MAIVQTLPVPLEPAPEAATAPQAPVMGSVSSLISGRPCPGGPAPPRHHGPPGPTFFRQQDGLLRGGYEAQEPLCPAVPPRKAVPVTSFTYINEDFRTESPPSPSSDVEDAREQRAHNAHLRGPPPKLIPVSGKLEKNMEKILIRPTAFKPVLPKPRGAPSLPSFMGPRATGLSGSQGSLTQLFGGPASSSSSSSSSSAADKPLAFSGWASGCPSGTLSDSGRNSLSSLPTYSTGGAEPTTSSPGGHLPSHGSGRGALPGPARGVPTGPSHSDSGRSSSSKSTGSLGGRVAGGLLGSGTRASPDSSSCGERSPPPPPPPPSDEALLHCVLEGKLRDREAELQQLRDSLDENEATMCQAYEERQRHWQREREALREDCAAQAQRAQRAQQLLQLQVFQLQQEKRQLQDDFAQLLQEREQLERRCATLEREQRELGPRLEETKWEVCQKSGEISLLKQQLKESQAELVQKGSELVALRVALREARATLRVSEGRARGLQEAARARELELEACSQELQRHRQEAEQLREKAGQLDAEAAGLREPPVPPATADPFLLAESDEAKVQRAAAGVGGSLRAQVERLRVELQRERRRGEEQRDSFEGERLAWQAEKEQVIRYQKQLQHNYIQMYRRNRQLEQELQQLSLELEARELADLGLAEQAPCICLEEITATEI
B5: TSC22D4: human host interactor protein, Gene ID 81628, expressed from transfected ORF vector (protein)
chain: MSGGKKKSSFQITSVTTDYEGPGSPGASDPPTPQPPTGPPPRLPNGEPSPDPGGKGTPRNGSPPPGAPSSRFRVVKLPHGLGEPYRRGRWTCVDVYERDLEPHSFGGLLEGIRGASGGAGGRSLDSRLELASLGLGAPTPPSGLSQGPTSWLRPPPTSPGPQARSFTGGLGQLVVPSKAKAEKPPLSASSPQQRPPEPETGESAGTSRAATPLPSLRVEAEAGGSGARTPPLSRRKAVDMRLRMELGAPEEMGQVPPLDSRPSSPALYFTHDASLVHKSPDPFGAVAAQKFSLAHSMLAISGHLDSDDDSGSGSLVGIDNKIEQAMDLVKSHLMFAVREEVEVLKEQIRELAERNAALEQENGLLRALASPEQLAQLPSSGVPRLGPPAPNGPSV

Test system: HIV-1 LTR promoter transactivation by HIV-1 Tat
Assay: Transactivation assay, HIV-1 LTR luciferase reporter with HIV-1 Tat
Format: cell-based
Details: HEK293 cells co-transfected with pHIV1LTR-Luc, HIV-1 Tat and the human ORF; relative luciferase activity 24 h post-transfection; positive if >=2 or <=0.5 and p<0.05
In short: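 HEK293 cells (10^4) were calcium-phosphate co-transfected with the HIV-1 LTR-luciferase reporter plus HIV-1 Tat, or the HTLV-1 LTR-luciferase reporter plus HTLV-1 Tax, each with a human ORF expression plasmid. A hit required relative activity ≥2 or ≤0.5 with paired t-test p<0.05.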

| Molecule | HIV_LTR transactiv. |
| --- | --- |
| B1 | 0.28 fold change |
| B2 | 0.19 fold change |
| B3 | 2.79 fold change |
| B4 | 0.49 fold change |
| B5 | 5.43 fold change |

Test system: HTLV-1 LTR promoter transactivation by HTLV-1 Tax
Assay: Transactivation assay, HTLV-1 LTR luciferase reporter with HTLV-1 Tax
Format: cell-based
Details: HEK293 cells co-transfected with pHTLV1LTR-Luc, HTLV-1 Tax and the human ORF; relative luciferase activity 24 h post-transfection; positive if >=2 or <=0.5 and p<0.05

| Molecule | HTLV_LTR transactiv. |
| --- | --- |
| B1 | 5.24 fold change |
| B2 | 0.45 fold change |
| B3 | 0.41 fold change |
| B4 | 0.23 fold change |
| B5 | 3.75 fold change |
